PMC5145889, “Differential CCR7 Targeting in Dendritic Cells by Three Naturally Occurring CC-Chemokines” (Frontiers in Immunology, 2016)

T1: human CCR7, wild type, untagged (human, UniProt P32248 25-378)
T1 sequence (looked up): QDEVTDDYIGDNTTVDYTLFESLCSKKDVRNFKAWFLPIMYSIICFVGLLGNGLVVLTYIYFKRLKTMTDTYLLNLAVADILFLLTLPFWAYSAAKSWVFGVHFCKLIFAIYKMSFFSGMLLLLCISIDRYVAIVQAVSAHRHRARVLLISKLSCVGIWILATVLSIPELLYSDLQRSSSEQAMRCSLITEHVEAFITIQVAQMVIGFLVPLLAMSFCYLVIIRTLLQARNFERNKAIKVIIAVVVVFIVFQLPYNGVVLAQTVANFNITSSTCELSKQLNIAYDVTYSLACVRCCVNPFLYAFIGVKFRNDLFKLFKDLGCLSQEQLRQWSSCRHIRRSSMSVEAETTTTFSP

T2: CCR7 K137A (human, UniProt P32248 25-378, K137A)
T2 sequence (looked up): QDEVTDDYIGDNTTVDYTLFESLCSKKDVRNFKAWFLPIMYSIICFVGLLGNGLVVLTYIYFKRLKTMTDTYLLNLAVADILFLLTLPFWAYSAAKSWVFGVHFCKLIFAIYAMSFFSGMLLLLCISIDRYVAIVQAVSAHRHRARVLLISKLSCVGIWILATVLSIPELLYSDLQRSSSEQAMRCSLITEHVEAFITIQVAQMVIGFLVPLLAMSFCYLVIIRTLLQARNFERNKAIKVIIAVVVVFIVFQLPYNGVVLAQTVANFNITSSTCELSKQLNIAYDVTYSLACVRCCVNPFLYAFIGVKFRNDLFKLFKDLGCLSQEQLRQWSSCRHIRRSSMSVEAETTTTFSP

T3: CCR7 E193A (human, UniProt P32248 25-378, E193A)
T3 sequence (looked up): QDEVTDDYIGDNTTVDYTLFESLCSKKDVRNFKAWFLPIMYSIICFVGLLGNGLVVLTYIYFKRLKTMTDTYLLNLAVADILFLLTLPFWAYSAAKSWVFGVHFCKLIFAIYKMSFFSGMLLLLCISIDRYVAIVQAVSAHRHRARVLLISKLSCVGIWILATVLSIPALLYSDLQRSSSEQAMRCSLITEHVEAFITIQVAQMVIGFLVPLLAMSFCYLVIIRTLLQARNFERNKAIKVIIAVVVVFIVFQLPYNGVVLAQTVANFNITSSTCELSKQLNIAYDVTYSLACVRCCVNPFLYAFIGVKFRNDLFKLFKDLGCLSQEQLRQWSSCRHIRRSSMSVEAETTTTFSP

T4: CCR7 F133A (human, UniProt P32248 25-378, F133A)
T4 sequence (looked up): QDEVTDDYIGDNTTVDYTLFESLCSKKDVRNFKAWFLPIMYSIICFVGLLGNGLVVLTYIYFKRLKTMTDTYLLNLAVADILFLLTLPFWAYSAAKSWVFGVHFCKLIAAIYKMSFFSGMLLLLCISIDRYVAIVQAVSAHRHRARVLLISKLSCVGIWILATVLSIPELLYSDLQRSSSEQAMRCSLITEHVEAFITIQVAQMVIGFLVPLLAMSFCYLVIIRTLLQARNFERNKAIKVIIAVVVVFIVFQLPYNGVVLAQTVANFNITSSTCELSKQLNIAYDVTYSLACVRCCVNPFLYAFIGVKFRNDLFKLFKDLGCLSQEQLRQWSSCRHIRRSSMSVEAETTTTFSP

T5: CCR7 fused with the ProLink (PK) 1-tag (human, UniProt P32248 25-378)
T5 sequence (looked up): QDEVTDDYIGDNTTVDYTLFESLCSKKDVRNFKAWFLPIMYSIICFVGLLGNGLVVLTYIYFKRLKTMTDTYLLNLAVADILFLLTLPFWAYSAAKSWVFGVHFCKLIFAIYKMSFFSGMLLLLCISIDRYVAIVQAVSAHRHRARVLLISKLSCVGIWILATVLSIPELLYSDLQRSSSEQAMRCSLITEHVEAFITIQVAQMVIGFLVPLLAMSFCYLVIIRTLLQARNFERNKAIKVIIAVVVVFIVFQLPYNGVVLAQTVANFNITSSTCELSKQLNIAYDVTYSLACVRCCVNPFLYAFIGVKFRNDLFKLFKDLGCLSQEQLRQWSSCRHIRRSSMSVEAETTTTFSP

T6: CCR7 Y312A (human, UniProt P32248 25-378, Y312A)
T6 sequence (looked up): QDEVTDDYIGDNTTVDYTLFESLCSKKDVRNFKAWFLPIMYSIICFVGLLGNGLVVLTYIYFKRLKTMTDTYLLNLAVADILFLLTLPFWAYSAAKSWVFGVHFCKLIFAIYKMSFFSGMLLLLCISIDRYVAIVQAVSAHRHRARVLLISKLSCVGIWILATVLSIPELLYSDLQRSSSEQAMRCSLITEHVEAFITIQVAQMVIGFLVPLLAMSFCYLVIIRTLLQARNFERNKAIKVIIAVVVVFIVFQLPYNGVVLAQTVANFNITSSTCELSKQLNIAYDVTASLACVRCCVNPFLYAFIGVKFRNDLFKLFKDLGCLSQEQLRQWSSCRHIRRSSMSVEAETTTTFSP


Experiments:
[1] = target: human CCR7, wild type, untagged (human) (UniProt P32248)
[2] = target: CCR7 fused with the ProLink (PK) 1-tag (human) (UniProt P32248)
[3] = target: human CCR7, wild type, untagged (human) (UniProt P32248); remark: listed apart in the source
CCR7 Y312A (human) = CCR7 Y312A (human) (UniProt P32248)
[4] = target: human CCR7, wild type, untagged (human) (UniProt P32248); remark: listed apart in the source
[5] = target: T1, human CCR7, wild type, untagged; test: cell-based or functional assay
CCR7 K137A = target: T2, CCR7 K137A; test: cell-based or functional assay
CCR7 E193A = target: T3, CCR7 E193A; test: cell-based or functional assay
CCR7 F133A = target: T4, CCR7 F133A; test: cell-based or functional assay
[6] = target: T1, human CCR7, wild type, untagged; test: cell-based or functional assay; remark: listed apart in the source
[7] = target: T5, CCR7 fused with the ProLink (PK) 1-tag; test: cell-based or functional assay
CCR7 Y312A = target: T6, CCR7 Y312A; test: cell-based or functional assay

human chemokine CCL19, sequence (Q99731 22-98): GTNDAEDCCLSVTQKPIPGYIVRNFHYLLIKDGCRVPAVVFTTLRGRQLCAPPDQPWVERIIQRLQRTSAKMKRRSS

Row | EC50 of PI-turnover (Gαi signalling read through Gqi4myr) in HEK293 cells transfected with CCR7 [1] | EC50 of β-arrestin 2 recruitment to CCR7 (PathHunter, U2OS cells) [2] | EC50 of β-arrestin 2-dependent CCR7 internalization (U2OS cells, 3 h) [3] | EC50 of PI-turnover in HEK293 cells (CCR7 Y312A (human)) | EC50 of PI-turnover (Gαi signalling read through Gqi4myr) in HEK293 cells transfected with CCR7 [5] | percentage activation of CCR7 (G-protein signaling) relative to CCL19 (CCR7 K137A) | percentage activation of CCR7 (G-protein signaling) relative to CCL19 (CCR7 E193A) | percentage activation of CCR7 (G-protein signaling) relative to CCL19 (CCR7 F133A) | percentage activation of CCR7 (G-protein signaling) relative to CCL19 [6] | EC50 of β-arrestin 2-dependent CCR7 internalization (U2OS cells, 3 h) [5] | EC50 of β-arrestin 2 recruitment to CCR7 (PathHunter, U2OS cells) [7] | EC50 of PI-turnover in HEK293 cells (CCR7 Y312A) | Molecule | EC50 of PI-turnover in HEK293 cells (mutagenesis series, wild type) [4] | EC50 of PI-turnover in HEK293 cells (mutagenesis series, wild type) [5]
1 | 5 nM | 15 nM | 4.1 nM | 7.8 nM | – | – | – | – | – | – | – | – | human chemokine CCL19 (from UniProt Q99731 22-98) (ligand) | 5.4 nM | –
2 | – | – | – | – | ~142 nM | 16.7 % relative to CCL19 | 17.5 % relative to CCL19 | 27.1 % relative to CCL19 | 42.7 % relative to CCL19 | – | – | – | tailless-CCL21 (ligand, human) SDGGAQDCCLKYSQRKIPAKVVRSYRKQEPSLGCSIPAILFLPRKRSQAELCADPKELWVQQLMQHLDKTPSPQKPAQG | – | –
3 | – | – | – | – | ~50 nM | 16 % relative to CCL19 | 19.3 % relative to CCL19 | 28.7 % relative to CCL19 | 57 % relative to CCL19 | ~152 nM | ~263 nM | ~77 nM | human chemokine CCL21 (full-length CCL21) (ligand, UniProt O00585 24-134, looked up) SDGGAQDCCLKYSQRKIPAKVVRSYRKQEPSLGCSIPAILFLPRKRSQAELCADPKELWVQQLMQHLDKTPSPQKPAQGCRKDRGASKTGKKGKGSKGCKRTERSQTPKGP | – | ~156 nM
